Data: patent US20040266684

Target: T1, purified human Lys77-Plasminogen, P00747
T1 chain: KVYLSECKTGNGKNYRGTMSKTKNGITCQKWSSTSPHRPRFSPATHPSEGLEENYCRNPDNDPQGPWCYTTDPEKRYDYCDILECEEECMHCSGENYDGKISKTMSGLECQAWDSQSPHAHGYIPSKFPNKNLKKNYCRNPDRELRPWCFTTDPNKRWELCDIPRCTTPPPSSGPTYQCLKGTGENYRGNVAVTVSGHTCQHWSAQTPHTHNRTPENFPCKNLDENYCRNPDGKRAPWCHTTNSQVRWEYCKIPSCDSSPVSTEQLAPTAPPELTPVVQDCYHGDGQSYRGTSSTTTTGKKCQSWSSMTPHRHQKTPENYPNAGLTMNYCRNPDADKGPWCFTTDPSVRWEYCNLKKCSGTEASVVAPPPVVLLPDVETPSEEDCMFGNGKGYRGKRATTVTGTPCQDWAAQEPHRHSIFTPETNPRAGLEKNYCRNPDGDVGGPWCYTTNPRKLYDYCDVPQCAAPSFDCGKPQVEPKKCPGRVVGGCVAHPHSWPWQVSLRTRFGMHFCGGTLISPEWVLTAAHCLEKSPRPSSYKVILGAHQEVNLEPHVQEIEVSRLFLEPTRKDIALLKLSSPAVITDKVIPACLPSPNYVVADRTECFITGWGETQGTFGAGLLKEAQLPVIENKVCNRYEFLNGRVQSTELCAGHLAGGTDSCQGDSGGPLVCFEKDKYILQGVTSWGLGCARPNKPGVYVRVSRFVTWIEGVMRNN

B1: thiolated streptokinase (protein)
chain: IAGPEWLLDRPSVNNSQLVVSVAGTVEGTNQDISLKFFEIDLTSRPAHGGKTEQGLSPKSKPFATDSGAMSHKLEKADLLKAIQEQLIANVHSNDDYFEVIDFASDATITDRNGKVYFADKDGSVTLPTQPVQEFLLSGHVRVRPYKEKPIQNQAKSVDVEYTVQFTPLNPDDDFRPGLKDTKLLKTLAIGDTITSQELLAQAQSILNKNHPGYTIYERDSSIVTHDNDIFRTILPMDQEFTYRVKNREQAYRINKKSGLNEEINNTDLISEKYYVLKKGEKPYDPFDRSHLKLFTIKYVDVDTNELLKSEQLLTASERNLDFRDLYDPRDKAKLLYNNLDAFGIMDYTLTGKVEDNHDDTNRIITVYMGKRPEGENASYHLAYDKDRYTEEEREVYSYLRYTGTPIPDNPNDK
plasmin generated in the plasminogen activation assay (S-2251 substrate units): thiolated SK (1 nM) generated plasmin at a nearly linear of 4225 SU/ml
